Results on one substance are retold here after PMC4109720.

The target of one test is myc-JIP1-F336A (human) (UniProt Q9UQF2). The experiment in a line: co-IP.
A further test addresses myc-JIP1-ΔLIR (human) (UniProt Q9UQF2). The experiment in a line: co-IP.

For the substance “GFP-LC3 (from UniProt Q9GZQ8 1-120) (natural protein)”, the percent of the GFP-LC3 binding of wildtype myc-JIP1 (densitometry of co-IP) with myc-JIP1-F336A (human) and in the test with myc-JIP1-ΔLIR (human) was 20% in each case.
